From patent US20220226425A1, “METHOD OF TREATING MELANOCORTIN-4 RECEPTOR PATHWAY-ASSOCIATED DISORDERS” (RHYTHM PHARMACEUTICALS, INC., priority 2015, published 2022)

Molecular target: melanocortin 5 receptor (human) (UniProt P33032)
Assay: cell-based or functional assay

Chain of melanocortin 5 receptor (human) (P33032 whole entry): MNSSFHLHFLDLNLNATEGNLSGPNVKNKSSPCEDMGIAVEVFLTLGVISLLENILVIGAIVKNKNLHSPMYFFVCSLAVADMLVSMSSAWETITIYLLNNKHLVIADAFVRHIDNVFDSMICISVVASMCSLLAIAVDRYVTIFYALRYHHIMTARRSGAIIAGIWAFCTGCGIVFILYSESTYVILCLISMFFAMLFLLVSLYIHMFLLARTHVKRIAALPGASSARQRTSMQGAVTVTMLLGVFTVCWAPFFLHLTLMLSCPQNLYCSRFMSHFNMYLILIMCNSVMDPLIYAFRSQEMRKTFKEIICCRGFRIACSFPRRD

EC-50 (nM), cAMP accumulation: 1680 nM
Substance: RM-493 (peptide)
